{"source": "patent US10246503B2", "about": "“Method of improving the pharmacokinetic profile of a therapeutic polypeptide and the use thereof” (BEIJING ANXINHUAIDE BIOTECH. CO., LTD, priority 2012, dated 2019)", "molecules": {"B1": {"name": "GLP1(A8G/G22E/R36G)-Fn8-p246-COL18NC1: GLP-1 mutant, Fn8, pCloud p246, COL18NC1 fusion; SEQ ID NO: 16 (protein)", "chain": "HGEGTFTSDVSSYLEEQAAKEFIAWLVKGGGSGGGSGGGSGGGSGGGSGSGGAVPPPTDLRFTNIGPDTMRVTWAPPPSIDLTNFLVRYSPVKNEEDVAELSISPSDNAVVLTNLLPGTEYVVSVSSVYEQHESTPLRGRQKTGGGGSGGGSGSGSESGSGGGSTSSGTGSETESPGSGSESGSGPSSAGSGSGSESGSGSGSSGPGSTGGSGSESGSGPGSSGTGGTATGSGSESGSGPGSSGPGSTGSGSGSESGSGSGSSGTGSTGGSGSESGSGPGSPRPGSTGTGSGSESGSGPGSSERGSAGGSGSESGSGTSESSASGSTGGSGSESGSGSESGSGSGSESGSGPESPGSGGSGSESGSGTSGSTGSGSESGSGGGSGGGSGGGASSGVRLWATRQAMLGQVHEVPEGWLIFVAEQEELYVRVQNGFRKVQLEARTPLPRG"}}, "key": {"[1]": {"assay": "analytical gel filtration (Superdex200), apparent molecular weight", "format": "physicochemical", "excerpt": "In the fusion protein of GLP-1(A8G/G22E)-Fn8-COL18NC1 described in example 4, the flexible unstructured linker between Fn8 and COL18NC1 contains six residues (GGGSGG; SEQ ID NO:89). To generate the flexible un-structured linkers with different lengths, we have synthesized the genes GLP-1(A8G/G22E/R36S)-Fn8-COL18NC1-20, GLP-1(A8G/G22E/R36S)-Fn8-COL18NC1-30, GLP-1(A8G/G22E/R36S)-Fn8-COL18NC1-54 and GLP-1(A8G/G22E/R36S)-Fn8-COL18NC1-60. In these genes, the length of the flexible unstructured polypeptide linker between Fn8 and COL18NC1 contained 20, 30, 54 and 60 residues, respectively. The protein sequences of GLP-1(A8G/G22E/R36S)-Fn8-COL18NC1-20, GLP-1(A8G/G22E/R36S)-Fn8-COL18NC1-30, GLP-1(A8G/G22E/R36S)-Fn8-COL18NC1-54 and GLP-1(A8G/G22E/R36S)-Fn8-COL18NC1-60 are listed as SEQ ID NO:8-11. The synthetic genes of GLP-1(A8G/G22E/R36S)-Fn8-COL18NC1-20, GLP-1(A8G/G22E/R36S)-Fn8-COL18NC1-30, GLP-1(A8G/G22E/R36S)-Fn8-COL18NC1-54 and GLP-1(A8G/G22E/R36S)-Fn8-COL18NC1-60 were grafted to the pET29b by NdeI and XhoI for protein expressions. The expression and purification of these fusion proteins were carried out using similar protocols described in example 3. To estimate the hydrodynamic radius and/or the Rg of the fusion proteins, the purified proteins were loaded on an analytical gel filtration column Superdex200 (GE Healthcare).\nMoreover, the flexible unstructured linker between the therapeutic polypeptide and the scaffold protein may adjust the hydrodynamic radius and/or the Rg of the fusion molecule in a tunable manner.\nThe apparent molecular weights of the fusion proteins were estimated by use of an analytical gel filtration column Superdex-200 (GE Healthcare) mounted on the AKTA FPLC system (GE Healthcare). The purified fusion proteins GLP-1-Fn8, GLP-1-Fn8-COL18NC1, GLP-1(A8G/G22E/R36G)-Fn8-p246-COL18NC1 were loaded on the Superdex200 column. GLP-1-Fn8 is a fusion protein of GLP-1 and Fn8 and contains the first 144 amino acid residues of the fusion protein GLP-1-Fn8-COL18NC1 (SEQ ID NO:2). […] The genuine molecular weights for the fusion proteins GLP-1-Fn8 monomer, GLP-1-Fn8-COL18NC1 trimer, and GLP-1(A8G/G22E/R36G)-Fn8-p246-COL18NC1 trimer were ˜15 Kd, 65 Kd and 123Kd, respectively."}, "[2]": {"assay": "pharmacokinetics in cynomolgus monkeys, sandwich ELISA", "format": "in vivo", "details": "subcutaneous, 5 nmol/kg", "description": "The GLP-1 concentrations within the samples were examined by use of the sandwich ELISA method. The rabbit polyclonal antibody against human Fibronectin at the concentration of 3 ug/ml (Ab299, Abcam company) was coated on ELISA plate for 1 hour at room temperature. Then the plate was washed by PBST buffer three times and the wells were blocked by PBS with 10% FBS for 1 hour at room temperature. The plate was washed three times before the serum samples containing GLP-1 fusion proteins were added. The serum samples could be diluted to 20-10000 folds before use. The ELISA plate was incubated with the serum samples at room temperature for 1 hour and then washed by PBST buffer five times. Then mouse monoclonal against human GLP-1 peptide antibody (sc57510, Santa Cruz Biotechnology) at the concentration of 1 ug/ml in PBST buffer was added to the wells. The plate was washed extensively after incubation of 1 hour at room temperature. The secondary antibody, […] HRP conjugated antibody (Beijing ZSGB-Bio company, ZB 5301), was added into the wells and the color was developed using TMB (3,3′,5,5′-tetramethylbenzidine, BD Biosciences, Cat 555214). The plate reader (Bio-Rad microplate reader Model 680) was utilized to obtain the OD450 readings. This method has been calibrated using purified proteins first.\nTo further investigate the pharmacokinetics profiles for the GLP-1 containing fusion proteins generated using the method of the invention, the fusion protein GLP1(A8G/G22E/R36G)-Fn8-p246-COL18NC1 was administrated into the cynomolgus monkeys by subcutaneous injection. The fusion protein was administered on three cynomolgus monkeys at the dose of 5 nmol/kg. Blood samples were taken at various time points after injections such as 0-min, 2-hour, 4-hour, 6-hour, 8-hour, 24-hour, 48-hour, and daily until the 15th day. The serum samples were centrifuged and kept at −80° C. freezer. The concentrations of the fusion protein within the serum samples were examined by using the sandwich ELISA method described above. The pharmacokinetics profile of the fusion protein GLP1(A8G/G22E/R36G)-Fn8-p246-COL18NC1 in cynomolgus monkeys was shown in FIG. 8. The pharmacokinetics parameters were obtained by using the WinNonlin software (Table 5)."}, "cynomolgus monkeys": {"test_system": "cynomolgus monkeys", "assay": "specific antibody against the fusion protein in monkey serum, ELISA", "format": "in vivo", "details": "serum of three cynomolgus monkeys one month after dosing", "excerpt": "The serum samples of the cynomolgus monkeys receiving the fusion protein GLP1(A8G/G22E/R36G)-Fn8-p246-COL18NC1 were withdrawn one month after dosing to examine whether specific antibody against GLP1(A8G/G22E/R36G)-Fn8-p246-COL18NC1 has been generated."}}, "data": [{"molecule": "B1", "values": [{"measurement": "apparent molecular weight", "setting": "[1]", "value": "~550", "unit": "Kd"}, {"measurement": "AUCall", "setting": "[2]; Monkey", "value": 1267.8, "unit": "µg·h/mL"}, {"measurement": "CL/F", "setting": "[2]; Monkey", "value": 11.5, "unit": "mL/day/kg"}, {"measurement": "Cmax", "setting": "[2]; Monkey", "value": 8210, "unit": "ng/mL"}, {"measurement": "T½", "setting": "[2]; Monkey", "value": 67.3, "unit": "h"}, {"measurement": "Vss", "setting": "[2]; Monkey", "value": 0.0516, "unit": "L/kg"}, {"measurement": "half life", "setting": "[2]; cynomolgus monkeys", "value": "~67", "unit": "h"}, {"measurement": "specific antibody against the fusion protein", "setting": "cynomolgus monkeys", "value": "no specific antibody was induced"}]}]}
